Test results published in PMC4424342.

Target: GST-Shp2 SH2 T73D/S189D
Assay: pull-down; glutathione-Sepharose bead-bound bacterial GST-Shp2 SH2 proteins incubated with lysates of HEK293T cells transfected with the ligand and constitutively active Src; 1 h at 4 °C; bound proteins immunoblotted for phosphotyrosine (4G10) and GST; band intensities quantified with ImageJ

For “GFP-PKD1, tyrosine-phosphorylated (from UniProt Q15139 1-912) (enzyme)”, the fold reduction of binding against the wild-type SH2 domains was 1.7 fold.

Work on “Venus-GAB2, tyrosine-phosphorylated (from UniProt Q9UQC2 1-676) (natural protein)” yielded a fold reduction of binding against the wild-type SH2 domains of 2.7 fold.

For “Venus-GAB1, tyrosine-phosphorylated (from UniProt Q13480 1-694) (natural protein)”, the fold reduction of binding against the wild-type SH2 domains was 5.7 fold.
